Reference: the DeepSol protein solubility set

Test: soluble on expression in E. coli; label from the status in PepcDB or PDB records

| Sequence | soluble on expression in E. coli |
| --- | --- |
| MAHHTKETMELIKELVSIPSPSGNTAKIINFIENYVSEWNVETKRNNKGALILTVKGKNDAQHRLLTAHVDTLGAMVKEIKPDGRLSLSMIGGFRWNSVEGEYCEIETSSGKTYTGTILMHQTSVHVYKDAGEAKRDEKNIEVRIDERVFSADEVRELGIEVGDFVSFDPRVQITESGYIKSRHLDDKVSVAILLKLIKRLQDENVTLPYTTHFLISNNEEIGYGGNSNIPEETVEYLAVDMGALGDGQASDEYTVSICAKDSSGPYHYALRKHLVELAKTNHIEYKVDIYPYYGSDASAAIRAGFDVKHALIGAGIDSSHAFERTHESSIAHTEALVYAYVMSNLIEE | soluble |
| GPGSMRARSLLRQQASAATLQPLRSVVAIGLRQEFDPHWPLPLPPPLPMNKQKHTLVLDIDETLIHTYAMGLHDDSKDHTRDPALQGVSLIDYNVLLRPHLKEFLEEVNQLFEVVFWTAGTASYCCAVLDALEQQVMQLPRSFYSYVELAKESRKMKSSTSHTNFYALSRTQTLEQQGYMKYLPMLGRKMSSVVMLDDNVRSFPLTPRNGIRIDAFDPDDHVLQRYIFALRRVQKEKPHEMEAALVQCLQQGQQE | not soluble |
| MAHHHHHHMSSETPRASTHDVFCAALQMLGGAQIFAQPLIQRTAVASLSPRSRNGNQASAVIAESATSRDAGTNHLPDPGIDVDAKPVDKPCCRGEQPCERTGTAPVKAMVTLCDPPARCEGVLAAQNAQRRLHHLRFFGGRFFLADGVTASESQQTSGYASTATSNAHVSDDCSSTWELKASYFQAMKETLTAVMGRRLRSQLLCDDSTADTGTVLRAPVPRGATGASTMTTSARQAALRRRMEAFTSAVVHQESILDAVAAACRARLNTVGGATAAPTPCFFFSALPQISVRQWAGSHLYKHWLVRCGTPRASLPSTATNPQKSGPHGAPMLTSPSAPRAPATALVLPLDVEAELRKYWKLHDEAAARARLEALRCNDAQAFAEHVSLLKVSALLEIMEKTEGFMRRIGLRLQFHATQAAANRGGDGARAVPTTRAAPAALAEPGIADRPGGAAGCHGSEYERFRSYVASTKNEFKLMHRVDVFVAAQPAGLDATLLPHQMDGLRFLASLDANHINGILADEMGVGKTIQTLAFLLYLKNRRGETGETGEGSGGRVAPPRVGSRLPHLVLAPLSVVREWREACEQFVPSALHVAMYQELADPVHEAAAYDLVLLPVHAIRYVGAEAARIQWHYIVVDEAHKAVANLSTITAQRILRPLVFAPPGADWNAAQQRLAGALVAAALSESGGVHRQ | not soluble |
| MNTEKSEKCINVAPSGIRRMKKIHQMEIAQLFEYRRNCLGEKRTAVENVINAKVVAWNLAVVRRRHYFDLHGMTPQGAVDFVAQIVEGRRPGYIKLETGRGNHSKDNIPAIQNRLLQDFGNLSGFQIAIDPSNLGVLILSFQ | not soluble |
| MGHHHHHHSHMEHPLEMPICAFQLPDLTVYNEDFRSFIERDLIEQSMLVALEQAGRLNWWVSVDPTSQRLLPLATTGDGNCLLHAASLGMWGFHDRDLMLRKALYALMEKGVEKEALKRRWRWQQTQQNKESGLVYTEDEWQKEWNELIKLASSEPRMHLGTNGANCGGVESSEEPVYESLEEFHVFVLAHVLRRPIVVVADTMLRDSGGEAFAPIPFGGIYLPLEVPASQCHRSPLVLAYDQAHFSALVSMEQKENTKEQAVIPLTDSEYKLLPLHFAVDPGKGWEWGKDDSDNVRLASVILSLEVKLHLLHSYMNVKWIPLSS | soluble |
| MADNYVIWFENLRMTDVERVGGKNASLGEMISQLTEKGVRVPGGFATTAEAYRAFLAHNGLSERISAALAKLDVEDVAELARVGKEIRQWILDTPFPEQLDAEIEAAWNKMVADAGGADISVAVRSSATAEDLPDASFAGQQETFLNINGLDNVKEAMHHVFASLYNDRAISYRVHKGFEHDIVALSAGVQRMVRSDSGASGVMFTLDTESGYDQVVFVTSSYGLGENVVQGAVNPDEFYVFKPTLKAGKPAILRKTMGSKHIKMIFTDKAEAGKSVTNVDVPEEDRNRFSITDEEITELAHYALTIEKHYGRPMDIEWGRDGLDGKLYILQARPETVKSQEEGNRNLRRFAINGDKTVLCEGRAIGQKVGQGKVRLIKDASEMDSVEAGDVLVTDMTDPDWEPVMKRASAIVTNRGGRTCHAAIIARELGIPAVVGCGNATELLKNGQEVTVSCAEGDTGFIYAGLLDVQITDVALDNMPKAPVKVMMNVGNPELAFSFANLPSEGIGLARMEFIINRQIGIHPKALLEFDKQDDELKAEITRRIAGYASPVDFYVDKIAEGVATLAASVYPRKTIVRMSDFKSNEYANLVGGNVYEPHEENPMLGFRGAARYVADNFKDCFALECKALKRVRDEMGLTNVEIMIPFVRTLGEAEAVVKALKENGLERGKNGLRLIMMCELPSNAVLAEQFLQYFDGFSIGSNDMTQLTLGLDRDSGLVSESFDERNPAVKVMLHLAISACRKQNKYVGICGQGPSDHPDFAKWLVEEGIESVSLNPDTVIETWLYLANELNK | soluble |
| MPLRHWGMARGSKPVGDGAQPMAAMGGLKVLLHWAGPGGGEPWVTFSESSLTAEEVCIHIAHKVGITPPCFNLFALFDAQAQVWLPPNHILEIPRDASLMLYFRIRFYFRNWHGMNPREPAVYRCGPPGTEASSDQTAQGMQLLDPASFEYLFEQGKHEFVNDVASLWELSTEEEIHHFKNESLGMAFLHLCHLALRHGIPLEEVAKKTSFKDCIPRSFRRHIRQHSALTRLRLRNVFRRFLRDFQPGRLSQQMVMVKYLATLERLAPRFGTERVPVCHLRLLAQAEGEPCYIRDSGVAPTDPGPESAAGPPTHEVLVTGTGGIQWWPVEEEVNKEEGSSGSSGRNPQASLFGKKAKAHKAVGQPADRPREPLWAYFCDFRDITHVVLKEHCVSIHRQDNKCLELSLPSRAAALSFVSLVDGYFRLTADSSHYLCHEVAPPRLVMSIRDGIHGPLLEPFVQAKLRPEDGLYLIHWSTSHPYRLILTVAQRSQAPDGMQSLRLRKFPIEQQDGAFVLEGWGRSFPSVRELGAALQGCLLRAGDDCFSLRRCCLPQPGETSNLIIMRGARASPRTLNLSQLSFHRVDQKEITQLSHLGQGTRTNVYEGRLRVEGSGDPEEGKMDDEDPLVPGRDRGQELRVVLKVLDPSHHDIALAFYETASLMSQVSHTHLAFVHGVCVRGPENIMVTEYVEHGPLDVWLRRERGHVPMAWKMVVAQQLASALSYLENKNLVHGNVCGRNILLARLGLAEGTSPFIKLSDPGVGLGALSREERVERIPWLAPECLPGGANSLSTAMDKWGFGATLLEICFDGEAPLQSRSPSEKEHFYQRQHRLPEPSCPQLATLTSQCLTYEPTQRPSFRTILRDLTRLQPHNLADVLTVNPDSPASDPTVFHKRYLKKIRDLGEGHFGKVSLYCYDPTNDGTGEMVAVKALKADCGPQHRSGWKQEIDILRTLYHEHIIKYKGCCEDQGEKSLQLVMEYVPLGSLRDYLPRHSIGLAQLLLFAQQICEGMAYLHSQHYIHRDLAARNVLLDNDRLVKIGDFGLAKAVPEGHEYYRVREDGDSPVFWYAPECLKEYKFYYASDVWSFGVTLYELLTHCDSSQSPPTKFLELIGIAQGQMTVLRLTELLERGERLPRPDKCPCEVYHLMKNCWETEASFRPTFENLIPILKTVHEKYQGQAPSVFSVC | soluble |
| MAQTTLIKNVNGYTFTDNSLTQFSAISFTDDIINKVYPIGAVLPASKGVIVIDGQGQTMLPGLIDAHGHVIGYGHSLEHHHHHH | not soluble |
| MKRAAFYTLGCKVNQYETEAISEMFEKAGYKIVDFEDEADVYVINTCTVTNLSDRKSRQMIRRAKRNNENSIVIVIGCYAQTAPEEVSKIEGVNLVVGTKDRSRILEYLKELETSGGRRNYVGDIMKTREFEELGVNVYKERTRAFIKIQEGCNQFCTYCIIPYARGPVRSRSEENILKEVSGLAHSGYKEVVLTGIHVASYGKDIKNTSLIDIIRKVHEIEGIERIRLGSIEPTTVTEEFVRAIKGMEKLCPQFHISLQSGCDSTLKRMNRKYTTKEYLRSVELLRENLKDVAVTTDVMVGFPGETDEEFNETCRFVEKVLFARMHVFKYSRRKGTPAASYPDQVAPQKKEERSRILIELASRMTLEYNKSFTGRVLPVLFEQEVKGKEGFMEGLTPNYIRVECKGDKDIEGQILNVLLREAKDDYIVGEIVN | soluble |
| MEKLLQWSIANSQGDKEAMARAGQPDPKLLQQLFGGGGPDDPTLMKESMAVIMNPEVDLETKLVAFDNFEMLIENLDNANNIENLKLWEPLLDVLVQTKDEELRAAALSIIGTAVQNNLDSQNNFMKYDNGLRSLIEIASDKTKPLDVRTKAFYALSNLIRNHKDISEKFFKLNGLDCIAPVLSDNTAKPKLKMRAIALLTAYLSSVKIDENIISVLRKDGVIESTIECLSDESNLNIIDRVLSFLSHLISSGIKFNEQELHKLNEGYKHIEPLKDRLNEDDYLAVKYVL | soluble |
| MSLDEIVGIGFKRADAIARNMGVHPHSKYRIHSGIKYMLNTFQGEGHTYAPGVKLIQRAEELLRVEEGQVEGAIQELALNQEIQLERIDDEIIVYSMPYYYAESNVCKKLISLAQVELDPIEMDIDEELQKIEQAEEMTLAKQQKEAIKEAIENGISVITGGPGTGKTTTINSLIKVFEKLELKMLLAAPTGRASKRMTEATGKESKTIHRLLELGFGDDREGMLFQRNEDNPLDCHVIIIDEVSMVDIILMNSLMKSIARGTRVVLVGDVDQLPSVGAGNVLRDIIDSKVVKTIRLTEIFRQAQESMIVVNAHRINQGLYPQLNEKQKDFYFMKRNAKEDVLATVVELVRDRLPKHYQFDALRDIQVLTPMKKGETGTLNLNKELQAALNPPNVSKAEKDLKEKIFREGDKVMQIKNNYTLKWRCLDPMAEEQKGEGVFNGDIGYVQSIDTEAEELVILFDDQKQVNYSFTQLDELELAYSVTIHKSQGSEFPVVVIPITWGPPMLLTRNLLYTAVTRARSLVVLVGVESYLKKMVDNNKIIERYSGLGRRLGKYFEEGHHHHHH | not soluble |
| MGSDKIHHHHHHMVDFKEQQQRYWQLLHQPESLFLLHRANDVEHFIALMTDFLAWPELSLEHMLAFIALQQDSFIPDLDRFSQAWFPCRYHSQHKTVSWVPALHKLSKPFLEDDISDARRCLLASFIQPSTLLEPLLSQRESLPIVNPSLMIFHWSRCGSTLVSSSFALLETCRVLSESMLCSDVMHDDHWPLALKPQLVDLCLRLQGRLRLGERKLVIKWNAWDLACWPMLLELYPKSRVLCLIRNPKDIIDSHQRVAGRHMAGGQSLLPTELQTQQMENTDTEPSLDEFRTTVLQYLAQLSLALHQSSRVILLDYHQLTDFKPTTFSTILGWALSEGEIERWQHHWRFDAKQQGQLFTPVVPNEPVPIRECQNPSWQQLLITYNQLLQRLYWDKKA | not soluble |
| MIIGIDVGGTNTDAAIVSDEIKTIKLPNEAGIGGILKEISKEANLIEEKVVVSTSWPLNLIISKFSESRTLSLVIPGPGLNYSEYGEVLKGYVNHRGDVVEDIDEYEIAAIFRENSYDNVAISSKFSVRNGSLEDRVAEIVRNYVEDYRIALSHYAGGMNYPARIHTTVVNAKIRETVYRLTELIKAYAGDFYYFKGDGGIVPYTIALNNPSELYNSSPAAVALGAVYLTGEKNALVVDIGGTSTDFVEVIDGMPKIVEGIELAGRKTLIRCVDSVSIPFGGDSVVENGKLVPVCSKPIAFGGESFTLTDALNCAGYEIGDYRSSRKYECDVEKALNQFVSLAATTVREIGCKKIVGTGYLAPYLIPEVAKAAGVEYVIPDHYESANAVGVAVSRVSLTLYVRIDTEKCFAAYNGHTESCPFKPGSLPDDEQILEVAKEKVVEVAKKFGASEEELGKVRTVYFNSFTVVRGGMKRGVIADVIVQIEPGIRYGGLAAALEHHHHHH | not soluble |
| MITMKISSRFSIAVHILSILKNNPSSLCTSDYMAESVNTNPVVIRKIMSYLKQAGFVYVNRGPGGAGLLKDLHEITLLDVYHAVNVVEEDKLFHIHEQPNPDCPIGANIQAVLEIILIQAQSAMEEVLRNITMGQLFETLQEKMNA | soluble |
